According to patent publication US20240025977A1 (UNIVERSITY HEALTH NETWORK, published 2024):

How the values were obtained:
[1] = target: T1, misfolded/unfolded AL09 kappa light chain; assay: BLI (Octet), LX-96 on Anti-Mouse IgG Fc Capture biosensors, misfolded AL09 0-200 nM in solution
T1 construct: Same polypeptide as native AL09, in a chemically unfolded, reduced and alkylated state; also called misfolded AL09; mis/unfolded AL09
Description: (§1) FIGS. 13A-13D are bio-layer interferometry sensorgrams of binding interactions between LX-96 and misfolded (FIG. 13A, 13C) or native kappa light chain variants (FIG. 13B, 13D). Binding of LX-96 with its targets at a range of target concentrations was measured by changes in wavelength (nm) over 2000 seconds (300s association, 1700s dissociation). Association and dissociation curves were fit using Octet Systems Software to determine KD, KD Error, X2 and R2 values (table insets; FIGS. 13A-13D).
(§2) We quantified the monovalent binding affinity of LX-96 using bio-layer interferometry (BLI). LX-96 was loaded onto Anti-Mouse IgG Fc Capture (AMC) biosensors and dipped into a solution of varying concentrations of misfolded AL09 (0-200 nM) or native AL09 (0-3000 nM). From the sensorgram, we observed rapid association of misfolded AL09 with LX-96, followed by a slow dissociation step (FIG. 13A). […] This confirms that LX-96 is capable of binding specifically to the misfolded form of different kappa light chain variants at similar, single-digit nanomolar affinities.

[2] = target: ATTR amyloid in human cardiac tissue (human, UniProt P02766 21-147); assay: immunohistochemistry, ATTR cardiac tissue
[3] = target: T2, misfolded/unfolded AL12 kappa light chain; assay: BLI (Octet), LX-96 on Anti-Mouse IgG Fc Capture biosensors, misfolded AL12 in solution
T2 construct: also called misfolded AL12
Description: as §1, §2

[4] = target: T2, misfolded/unfolded AL12 kappa light …; assay: bio-layer interferometry, Octet fit, table inset
Description: as §1, §2

[5] = target: FITC-labeled AL09 under amyloid-forming conditions; assay: cell-based or functional assay
[6] = target: T3, IAPP (islet amyloid polypeptide) amyloid in pancreatic tissue (human, UniProt P10997 34-70); assay: immunohistochemistry, pancreatic tissue
T3 construct: Tissue section; also called IAPP pancreatic tissue
T3 chain (looked up): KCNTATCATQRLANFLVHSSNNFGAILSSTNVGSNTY

B1: LX-96 anti-kappa monoclonal antibody (antibody, V domains shown)
VH: QVQLQQPGAELARPGASVKLSCKASGYTFTSFWIQWIKQRPGQGLEWIGSIYPGDGDTRYIQKFRGKATLTADESSSTAYMQLSSLASEDSAIYYCAIVTTAPDYWGQGTTLTVSS
VL: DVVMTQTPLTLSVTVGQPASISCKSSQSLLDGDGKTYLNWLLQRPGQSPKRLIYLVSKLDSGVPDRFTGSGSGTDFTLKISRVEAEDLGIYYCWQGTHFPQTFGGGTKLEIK
notes: Fluorescently labeled in the in vivo localisation assay; also called anti-κ monoclonal antibody
Kd [1]: 1.12 nM
binding result [2]: no binding
Kd [3]: 7.5 nM
Kd [4]: 7.47 nM
inhibition of AL09 aggregation (FITC fluorescence of the soluble fraction at endpoint), IC50 [5]: < 1 µM
binding result [6]: no binding
